Reference: patent publication US20260207704A1, “STAPLED PEPTIDES AND METHODS THEREOF” (priority 2022, published 2026)
*1 amine or outer side, *2 acyl side, *3 side chain or, on linkers, in order; H or OH if unused. Bridges are numbered along the chain shown (N, C = ends). Primed or numbered codes have the meaning given here. [ ]: non-standard residue; d: D form. B5(4) = 2-amino-2-(pent-4-en-1-yl)hept-6-enoic acid, stapled through each of its two olefin groups with other olefin-containing amino acid residues, O=C(C(CCCC=[*:3])(CCCC=[*:4])N[*:1])[*:2]; PyrS2″ = (S)-3-amino-1-((pent-4-en-1-yloxy)carbonyl)pyrrolidine-3-carboxylic acid (olefin stapling residue), C=CCCCOC(=O)N1CC[C@@](N[*:1])(C(=O)[*:2])C1; PyrS2 = (S)-3-amino-1-((pent-4-en-1-yloxy)carbonyl)pyrrolidine-3-carboxylic acid, olefin staple residue, C=CCCCOC(=O)N1CC[C@@](N[*:1])(C(=O)[*:2])C1; PyrS2(3) = (S)-3-amino-1-((pent-4-en-1-yloxy)carbonyl)pyrrolidine-3-carboxylic acid, olefin residue, C=CCCCOC(=O)N1CC[C@@](N[*:1])(C(=O)[*:2])C1; PyrS2(5) = (S)-3-amino-1-((pent-4-en-1-yloxy)carbonyl)pyrrolidine-3-carboxylic acid, C=CCCCOC(=O)N1CC[C@@](N[*:1])(C(=O)[*:2])C1; B5″ = 2-amino-2-(pent-4-en-1-yl)hept-6-enoic acid (bis-olefin stapling residue), C=CCCCC(CCCC=C)(N[*:1])C(=O)[*:2]; B5(5) = 2-amino-2-(pent-4-en-1-yl)hept-6-enoic acid (two olefin arms), C=CCCCC(CCCC=C)(N[*:1])C(=O)[*:2]; B5(3) = 2-amino-2-(pent-4-en-1-yl)hept-6-enoic acid, two olefin arms, C=CCCCC(CCCC=C)(N[*:1])C(=O)[*:2]; 2F3MeF″ = aromatic residue, Cc1cccc(C[C@H](N[*:1])C(=O)[*:2])c1F; Phe(3-COOH) = N[C@@H](Cc1cccc(C(=O)O)c1)C(=O)O; 2F3MeF = Cc1cccc(C[C@H](N[*:1])C(=O)[*:2])c1F; Bta = N[C@@H](Cc1csc2ccccc12)C(=O)O; αAllylPro = C=CC[C@@]1(C(=O)O)CCCN1; tBuAla = CC(C)(C)C[C@H](N)C(=O)O; Gly(cBu) = N[C@H](C(=O)O)C1CCC1; 3Thi = N[C@@H](Cc1ccsc1)C(=O)O; PyrS2(4) = not defined here; BztA″ = aromatic residue; CyLeu = not defined here; Nle = CCCC[C@H](N)C(=O)O; dGlnR = not defined here; GlnR = not defined here; Cpg = not defined here; PL3 = not defined here; B5 = not defined here; Aib = CC(C)(N)C(=O)O

B1: I-14 (peptide)
peptide: Ac-[αAllylPro]DL[B5(4)]D[Phe(3-COOH)]AAF[dGlnR][PyrS2(5)][3Thi][Bta]K-NH2
modifications: bridge 10-14; not fully specified (bridges); printed as Ac-PL3-Asp-Leu-B5-Asp-3COOHF-Ala-Ala-Phe-DGlnR*3-PyrS2-3Thi-BztA-Lys*3-NH2; reading uncertain; also: DGlnR10 and Lys14 marked *3
B2: I-140 (peptide)
peptide: Ac-[αAllylPro]D[tBuAla][B5]D[Phe(3-COOH)][Gly(cBu)]AFK[PyrS2″][2F3MeF″][BztA″][GlnR]LS-NH2
modifications: bridge 10-14; not fully specified (bridges); printed as Ac-PL3-Asp-Npg-B5-Asp-3COOHF-Cbg-Ala-Phe-Lys*3-PyrS2-2F3MeF-BztA-GlnR*3-Leu-Ser-NH2; reading uncertain; also: Lys10 and GlnR14 marked *3
B3: I-10 (peptide)
peptide: Ac-[PL3]DL[B5]D[Phe(3-COOH)]AAFK[PyrS2(4)][3Thi][Bta][GlnR]-NH2
modifications: staple 1-4; bridge 10-14; not fully specified (residue 10); printed as Ac-PL3-Asp-Leu-B5-Asp-3COOHF-Ala-Ala-Phe-dLys*3-PyrS2-3Thi-BztA-GlnR*3-NH2; reading uncertain; also: PyrS2 tied into a staple, partner not placed
B4: I-13 (peptide)
peptide: Ac-[αAllylPro]DL[B5(4)]D[Phe(3-COOH)]AAF[dGlnR][PyrS2″][3Thi][Bta]K-NH2
modifications: bridge 10-14; not fully specified (bridges); printed as Ac-PL3-Asp-Leu-B5-Asp-3COOHF-Ala-Ala-Phe-DGlnR*3-PyrS2-3Thi-BztA-Lys*3-NH2; reading uncertain; also: DGlnR*3 and Lys*3 marked *3
B5: I-4 (peptide)
peptide: Ac-[αAllylPro]DL[B5(5)]DDAAFK[PyrS2(5)][3Thi][Bta][GlnR]-NH2
modifications: bridge 10-14; not fully specified (bridges); printed as Ac-PL3-Asp-Leu-B5-Asp-Asp-Ala-Ala-Phe-Lys*3-PyrS2-3Thi-BztA-GlnR*3-NH2; reading uncertain
B6: I-8 (peptide)
peptide: XDLXDDQAFKXXXQ
modifications: not fully specified; Ac-PL3-Asp-Leu-B5-Asp-Asp-GlnR*3-Ala-Phe-Lys*3-PyrS2-3Thi-BztA-Gln-NH2
B7: I-144 (peptide)
peptide: Ac-[αAllylPro]N[tBuAla][B5]D[Phe(3-COOH)][Aib]AFK[PyrS2″][2F3MeF″][BztA″][GlnR]LS-NH2
modifications: bridge 10-14; not fully specified (bridges); printed as Ac-PL3-Asn-Npg-B5-Asp-3COOHF-Aib-Ala-Phe-Lys*3-PyrS2-2F3MeF-BztA-GlnR*3-Leu-Ser-NH2; reading uncertain; also: Lys10 and GlnR14 marked *3
B8: I-470 (peptide)
peptide: Ac-[αAllylPro]E[tBuAla][B5(5)]E[Phe(3-COOH)][Aib]AFK[PyrS2(5)][3Thi][Bta][GlnR]A-NH2
modifications: bridge 10-14; not fully specified (bridges); printed as Ac-PL3-Glu-Npg-B5-Glu-3COOHF-Aib-Ala-Phe-Lys*3-PyrS2-3Thi-BztA-GlnR*3-Ala-NH2; reading uncertain
B9: I-136 (peptide)
peptide: Ac-[αAllylPro]D[tBuAla][B5]D[Phe(3-COOH)]AAFK[PyrS2″][2F3MeF″][BztA″][GlnR]LS-NH2
modifications: bridge 10-14; not fully specified (bridges); printed as Ac-PL3-Asp-Npg-B5-Asp-3COOHF-Ala-Ala-Phe-Lys*3-PyrS2-2F3MeF-BztA-GlnR*3-Leu-Ser-NH2; reading uncertain; also: Lys10 and GlnR14 marked *3
B10: I-16 (peptide)
peptide: Ac-[αAllylPro]DL[B5″]D[Phe(3-COOH)]AAF[GlnR][PyrS2″][3Thi][Bta]K-NH2
modifications: bridge 10-14; reading uncertain; also: PL3-B5 and PyrS2 links not placed, printed as Ac-PL3-Asp-Leu-B5-Asp-3COOHF-Ala-Ala-Phe-GlnR*3-PyrS2-3Thi-BztA-Lys*3-NH2
B11: I-15 (peptide)
peptide: Ac-[αAllylPro]DL[B5″]D[Phe(3-COOH)]AAF[GlnR][PyrS2″][3Thi][Bta]K-NH2
modifications: bridge 10-14; reading uncertain; also: PL3-B5 and PyrS2 links not placed, printed as Ac-PL3-Asp-Leu-B5-Asp-3COOHF-Ala-Ala-Phe-GlnR*3-PyrS2-3Thi-BztA-Lys*3-NH2
B12: I-12 (peptide)
peptide: Ac-[αAllylPro]DL[B5″]D[Phe(3-COOH)]AAFK[PyrS2″][3Thi][Bta][GlnR]-NH2
modifications: bridge 10-14; not fully specified (bridges); printed as Ac-PL3-Asp-Leu-B5-Asp-3COOHF-Ala-Ala-Phe-Lys*3-PyrS2-3Thi-BztA-GlnR*3-NH2; reading uncertain; also: Lys*3 and GlnR*3 marked *3
B13: I-6 (peptide)
peptide: XDLXDDAAFQXXXK
modifications: not fully specified; Ac-PL3-Asp-Leu-B5-Asp-Asp-Ala-Ala-Phe-GlnR*3-PyrS2-3Thi-BztA-Lys*3-NH2
B14: I-11 (peptide)
peptide: Ac-[PL3]DL[B5]D[Phe(3-COOH)]AAFK[PyrS2(4)][3Thi][Bta][GlnR]-NH2
modifications: staple 1-4; bridge 10-14; reading uncertain; also: PyrS2 tied into a staple, partner not placed, printed as Ac-PL3-Asp-Leu-B5-Asp-3COOHF-Ala-Ala-Phe-Lys*3-PyrS2-3Thi-BztA-GlnR*3-NH2
B15: I-141 (peptide)
peptide: Ac-[αAllylPro]D[tBuAla][B5]D[Phe(3-COOH)][CyLeu]AFK[PyrS2″][2F3MeF″][BztA″][GlnR]LS-NH2
modifications: bridge 10-14; not fully specified (bridges); printed as Ac-PL3-Asp-Npg-B5-Asp-3COOHF-CyLeu-Ala-Phe-Lys*3-PyrS2-2F3MeF-BztA-GlnR*3-Leu-Ser-NH2; reading uncertain; also: Lys10 and GlnR14 marked *3
B16: I-139 (peptide)
peptide: Ac-[αAllylPro]D[tBuAla][B5]D[Phe(3-COOH)][Cpg]AFK[PyrS2″][2F3MeF″][BztA″][GlnR]LS-NH2
modifications: bridge 10-14; not fully specified (bridges); printed as Ac-PL3-Asp-Npg-B5-Asp-3COOHF-Cpg-Ala-Phe-Lys*3-PyrS2-2F3MeF-BztA-GlnR*3-Leu-Ser-NH2; reading uncertain; also: Lys10 and GlnR14 marked *3
B17: I-137 (peptide)
peptide: Ac-[αAllylPro]D[tBuAla][B5]D[Phe(3-COOH)][Nle]AFK[PyrS2″][2F3MeF″][BztA″][GlnR]LS-NH2
modifications: bridge 10-14; not fully specified (bridges); printed as Ac-PL3-Asp-Npg-B5-Asp-3COOHF-nLeu-Ala-Phe-Lys*3-PyrS2-2F3MeF-BztA-GlnR*3-Leu-Ser-NH2; reading uncertain; also: Lys10 and GlnR14 marked *3
B18: I-138 (peptide)
peptide: Ac-[αAllylPro]D[tBuAla][B5]D[Phe(3-COOH)][Aib]AFK[PyrS2″][2F3MeF″][BztA″][GlnR]LS-NH2
modifications: bridge 10-14; not fully specified (bridges); printed as Ac-PL3-Asp-Npg-B5-Asp-3COOHF-Aib-Ala-Phe-Lys*3-PyrS2-2F3MeF-BztA-GlnR*3-Leu-Ser-NH2; reading uncertain; also: Lys10 and GlnR14 marked *3
B19: I-7 (peptide)
peptide: Ac-[αAllylPro]DL[B5(3)]DDKAF[GlnR][PyrS2(3)][3Thi][Bta]Q-NH2
modifications: bridge 7-10; not fully specified (bridges); printed as Ac-PL3-Asp-Leu-B5-Asp-Asp-Lys*3-Ala-Phe-GlnR*3-PyrS2-3Thi-BztA-Gln-NH2; reading uncertain
B20: I-5 (peptide)
peptide: XDLXDDAAFQXXXK
modifications: not fully specified; Ac-PL3-Asp-Leu-B5-Asp-Asp-Ala-Ala-Phe-DGlnR*3-PyrS2-3Thi-BztA-Lys*3-NH2
B21: I-135 (peptide)
peptide: Ac-[αAllylPro]D[tBuAla][B5]D[Phe(3-COOH)][GlnR](29N2spiroundecane)AFL[PyrS2][2F3MeF][Bta][GlnR]A-NH2
modifications: staple 1-4, 4-11 (inferred); not fully specified; printed as Ac-PL3-Asp-Npg-B5-Asp-3COOHF-[29N2spiroundecane]GlnR-Ala-Phe-Leu-PyrS2-2F3MeF-BztA-GlnR-Ala-NH2; reading uncertain; also: staple C=C reduced to CH2-CH2

Target: beta-catenin (human)
Test: fluorescence polarization

beta-catenin (human), sequence (B6V8E6 146-665 limits assumed): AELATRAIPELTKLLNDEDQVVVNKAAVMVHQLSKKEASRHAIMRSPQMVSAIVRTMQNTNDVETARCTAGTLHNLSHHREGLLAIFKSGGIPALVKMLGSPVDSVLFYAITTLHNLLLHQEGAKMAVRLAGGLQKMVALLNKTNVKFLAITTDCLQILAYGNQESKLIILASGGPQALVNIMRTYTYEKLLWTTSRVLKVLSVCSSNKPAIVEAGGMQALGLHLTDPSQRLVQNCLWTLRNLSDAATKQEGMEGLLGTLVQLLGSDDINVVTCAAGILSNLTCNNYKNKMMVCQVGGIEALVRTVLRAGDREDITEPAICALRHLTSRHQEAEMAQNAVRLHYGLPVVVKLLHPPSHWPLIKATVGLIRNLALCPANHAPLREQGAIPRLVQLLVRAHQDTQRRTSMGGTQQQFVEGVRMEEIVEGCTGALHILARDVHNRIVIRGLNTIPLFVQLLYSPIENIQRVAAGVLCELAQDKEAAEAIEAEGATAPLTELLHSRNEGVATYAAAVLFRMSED

| Binder | IC50 [nM] |
| --- | --- |
| B1 | < 50 |
| B2 | < 50 |
| B3 | < 50 |
| B4 | < 50 |
| B5 | < 50 |
| B6 | < 50 |
| B7 | < 50 |
| B8 | > 1000 |
| B9 | < 50 |
| B10 | < 50 |
| B11 | < 50 |
| B12 | < 50 |
| B13 | < 50 |
| B14 | < 50 |
| B15 | < 50 |
| B16 | < 50 |
| B17 | < 50 |
| B18 | < 50 |
| B19 | < 50 |
| B20 | < 50 |
| B21 | > 1000 |

Target: beta-catenin (human)
Test: cell-based or functional assay

| Binder | NanoBRET Abs IC50 (bin >3.0 uM) [nM] | NanoBRET Abs IC50 [nM] | NanoBRET Abs IC50 (bin >1.5 uM) [nM] |
| --- | --- | --- | --- |
| B1 | < 10000 | – | – |
| B2 | – | < 1500 | – |
| B3 | – | > 10000 | – |
| B4 | < 10000 | – | – |
| B5 | – | > 10000 | – |
| B6 | – | > 10000 | – |
| B7 | < 10000 | – | – |
| B8 | – | > 10000 | – |
| B9 | – | – | < 3000 |
| B10 | < 10000 | – | – |
| B11 | – | – | < 3000 |
| B12 | < 10000 | – | – |
| B13 | – | > 10000 | – |
| B14 | – | – | < 3000 |
| B15 | – | – | < 3000 |
| B16 | – | – | < 3000 |
| B17 | – | – | < 3000 |
| B18 | – | – | < 3000 |
| B19 | – | > 10000 | – |
| B20 | – | > 10000 | – |
| B21 | – | > 10000 | – |
